According to the supplement of paper PMC7877785:
± gives the uncertainty stated by the source.

Test: self-splicing fitness, log relative to wild type (ln ratio); higher = more splicing; Tetrahymena group I intron in knt gene, E. coli kanamycin selection, DiMSum; sequences stand for … in CUCUCU…GGAGGGAAAAGUUAUCAGGCAUGCACCUGGUAGCUAGUCUUUAAACCAAUAGAUUGCAUCGGUUUAAAAGGCAAGACCGUCAAAUUGCGGGAAAGGGGUCAACAGCCGUUCAGUACCAAGUCUCAGGGGAAACUUUGAGAUGGCCUUGCAAAGGGUAUGGUAAUAAGCUGACGGACAUGGUCCUAACCACGCAGCCAAGUCCUAAGUCAACAGAUCUUCUGUUGAUAUGGAUGCAGUUCACAGACUAAAUGUCGGUCGGGGAAGAUGUAUUCUUCUCAUAAGAUAUAGUCGGACCUCUCCUUAAUGGGAGCUAGCGGAUGAAGUGAUGCAACACUGGAGCCGCUGGGAACUAAUUUGUAUGCGAAAGUAUAUUGAUUAGUUUUGGAGUACUCGUGGUCG
In short: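 Library with all eight P1ex-region intron nucleotides randomised, intron inside the knt kanamycin-resistance gene on pET-22b(+), in E. coli BL21(DE3). Cells grew overnight at 37°C or 30°C on LB agar with or without 25 μg/mL kanamycin (plus 100 μg/mL carbenicillin, 50 μM IPTG, 0.2% rhamnose), in six replicate transformations. Pooled colonies were amplicon-sequenced on Illumina HiSeq 2500. DiMSum fitness is the error-weighted combination of wild-type-normalised replicate fold changes, kanamycin versus none.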

Row | Sequence | self-splicing fitness (ln) (30 °C) | self-splicing fitness (ln) (37 °C)
1 | UACCAGCAAUAUUACGCAGC | -2.72 ± 0.18 | -1.87 ± 0.23
2 | UGACAGCAAUAUUACGAUUG | -0.875 ± 0.061 | -0.525 ± 0.067
3 | CCUAAGCAAUAUUACGAGGA | -1.99 ± 0.15 | -1.85 ± 0.13
4 | UAGCAGCAAUAUUACGAUAG | -1.78 ± 0.073 | -1.46 ± 0.1
5 | ACACAGCAAUAUUACGCGGA | -1.98 ± 0.072 | -1.1 ± 0.07
6 | UCCGAGCAAUAUUACGCGCG | -2.28 ± 0.15 | -3.28 ± 0.43
7 | AGAAAGCAAUAUUACGAAUC | -3 ± 0.26 | -2.39 ± 0.24
8 | GUCCAGCAAUAUUACGGGGC | -4.08 ± 0.27 | -1.8 ± 0.2
9 | UGAUAGCAAUAUUACGGUAC | – | -2.12 ± 0.42
10 | CGGUAGCAAUAUUACGGAAU | – | -1.93 ± 0.47
11 | AGAAAGCAAUAUUACGAGUU | -1.58 ± 0.084 | -0.668 ± 0.11
12 | UCCGAGCAAUAUUACGAAGU | – | -1.4 ± 0.29
13 | GGAGAGCAAUAUUACGUUUC | -3.17 ± 0.34 | –
14 | AGAAAGCAAUAUUACGACUA | -0.244 ± 0.12 | -0.42 ± 0.12
15 | GGCUAGCAAUAUUACGAUUC | -0.162 ± 0.098 | -0.0286 ± 0.13
16 | CGCUAGCAAUAUUACGAUCC | -2.01 ± 0.37 | -1.74 ± 0.42
17 | CGCAAGCAAUAUUACGUACC | -3.02 ± 0.17 | -1.8 ± 0.17
18 | GACAAGCAAUAUUACGCAAC | -2.72 ± 0.14 | -2.15 ± 0.24
19 | UGGUAGCAAUAUUACGAGUU | -2.91 ± 0.24 | -2.75 ± 0.24
20 | CUUGAGCAAUAUUACGUACU | -4.15 ± 0.42 | -3.49 ± 0.39
21 | ACAUAGCAAUAUUACGGGGA | -2.65 ± 0.29 | -1.92 ± 0.19
22 | AUUCAGCAAUAUUACGCUCG | -1.11 ± 0.16 | 0.0381 ± 0.19
23 | CCGAAGCAAUAUUACGGGCG | -0.886 ± 0.066 | -0.235 ± 0.074
24 | GACUAGCAAUAUUACGUAGG | -1.95 ± 0.091 | -1.03 ± 0.11
25 | GGUGAGCAAUAUUACGGGUU | – | -2.59 ± 0.36

Row | Sequence | self-splicing fitness (ln) (30 °C) | self-splicing fitness (ln) (37 °C)
26 | GGGCAGCAAUAUUACGCGGG | -1.76 ± 0.16 | -1.21 ± 0.2
27 | CGGAAGCAAUAUUACGCUGG | -1.62 ± 0.11 | -1.15 ± 0.17
28 | CGCCAGCAAUAUUACGUGGG | -3.79 ± 0.19 | -2.38 ± 0.19
29 | UUAGAGCAAUAUUACGGCCG | -0.608 ± 0.15 | -0.234 ± 0.23
30 | UGCUAGCAAUAUUACGGGUA | -0.992 ± 0.14 | -0.151 ± 0.12
31 | UUGCAGCAAUAUUACGGCGA | -1.53 ± 0.12 | -0.929 ± 0.14
32 | UAAAAGCAAUAUUACGCUUG | -1.9 ± 0.12 | -0.981 ± 0.14
33 | ACAAAGCAAUAUUACGGAUC | -2.77 ± 0.12 | -0.403 ± 0.11
34 | GGCCAGCAAUAUUACGCGGA | -1.17 ± 0.12 | -0.716 ± 0.1
35 | CCCUAGCAAUAUUACGUGAA | -2.8 ± 0.16 | -2.62 ± 0.2
36 | ACAUAGCAAUAUUACGUGGC | -3.8 ± 0.23 | -3.09 ± 0.27
37 | CACGAGCAAUAUUACGGGGU | -4.09 ± 0.23 | -2.67 ± 0.16
38 | CAACAGCAAUAUUACGAGAA | -2.7 ± 0.39 | -0.546 ± 0.21
39 | CCCAAGCAAUAUUACGUAUC | -4.03 ± 0.14 | -2.52 ± 0.14
40 | AACCAGCAAUAUUACGCUAG | -2.62 ± 0.082 | -0.715 ± 0.08
41 | UUAGAGCAAUAUUACGUAUC | -3.29 ± 0.48 | -1.22 ± 0.34
42 | UCUGAGCAAUAUUACGCUAC | -3.66 ± 0.3 | -3.09 ± 0.47
43 | CAAAAGCAAUAUUACGGAAC | -2.55 ± 0.15 | -2.87 ± 0.27
44 | CCAAAGCAAUAUUACGGGAU | -3.6 ± 0.15 | -2.37 ± 0.14
45 | UCAUAGCAAUAUUACGGUAA | -2.44 ± 0.27 | -0.618 ± 0.15
46 | AGCGAGCAAUAUUACGGGAG | -2.82 ± 0.2 | -2 ± 0.29
47 | UCUAAGCAAUAUUACGAUCA | -0.876 ± 0.21 | -0.379 ± 0.14
48 | CUACAGCAAUAUUACGGAGC | -3.83 ± 0.14 | -3.14 ± 0.17
49 | UGGUAGCAAUAUUACGCGGA | -1.86 ± 0.15 | -0.911 ± 0.17
